Laboratory results published in the supplement of paper PMC10567573.

B1: MED27 (parent)
chain: YNENVYTEDGKLDIWSKSNYQVFQ
B2: FAM98B (parent)
chain: QLDKNSEVYQEVQAMFDTLGIPKS

Variants of: B1
Test: protein stability index of a GFP-peptide fusion (GPS, HEK-293T) (PSI 1-6); higher = more stable
Conditions: c terminus: a fixed tail appended
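Note: lentivirally expressed fusions sorted by FACS into six bins by GFP to DsRed ratio, PSI derived from sequencing read proportions per bin multiplied by bin number.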

| Variant | protein stability index |
| --- | --- |
| Q24F | 1.74 |
| Q24I | 1.6 |
| Q24R | 1.86 |
| Q24P | 1.81 |
| Q24S | 1.37 |
| Q24A | 1.94 |
| Q24K | 2.58 |
| Q24N | 2.46 |
| Q24G | 2.21 |
| Q24D | 2.75 |
| Q24Y | 2.01 |
| Q24M | 1.62 |
| Q24T | 2.23 |
| Q24V | 1.43 |
| Q24H | 2.17 |
| Q24E | 2.44 |
| Q24L | 1.96 |
| Q24W | 2.21 |
| Q24C | 2.3 |
| F23S | 1.4 |
| F23L | 2.41 |
| F23V | 2.38 |
| F23Q | 3.29 |
| F23M | 2.28 |
| F23N | 2.93 |
| F23Y | 2.31 |
| F23P | 2.99 |
| F23W | 2.16 |
| F23T | 3 |

Variants of: B2
Test: as above
Conditions: c terminus: a fixed tail appended

| Variant | protein stability index |
| --- | --- |
| L2E | 5.34 |
| L2I | 3.08 |
| L2R | 3.58 |
| L2D | 4.67 |
| L2M | 3.23 |
| L2N | 4.36 |
| L2C | 4.07 |
| L2A | 4.38 |
| L2W | 4.03 |
| L2S | 4.63 |
| L2Y | 4.08 |
| L2Q | 4.23 |
| L2G | 4.76 |
| L2K | 4.27 |
| L2T | 4.32 |
| L2V | 3.87 |
| L2H | 4.13 |
| L2P | 4.66 |
| L2F | 3.51 |
| N5Y | 2.83 |
| N5W | 2.91 |
| N5T | 4.11 |
| N5I | 2.88 |

| Variant | protein stability index |
| --- | --- |
| N5C | 3.37 |
| N5S | 3.97 |
| N5L | 2.69 |
| N5Q | 4.22 |
| N5E | 3.86 |
| N5A | 3.56 |
| N5V | 3.99 |
| N5H | 3.94 |
| N5K | 3.88 |
| N5P | 4.37 |
| N5R | 3.55 |
| N5G | 3.98 |
| N5M | 3.24 |
| N5D | 4.66 |
| N5F | 3.41 |
| D3S | 2.93 |
| D3I | 1.95 |
| D3F | 2.73 |
| D3Q | 2.75 |
| D3E | 3.87 |
| D3W | 2.08 |
| D3C | 2.21 |
| D3T | 3.06 |

| Variant | protein stability index |
| --- | --- |
| D3H | 3.43 |
| D3P | 3.11 |
| D3N | 3.47 |
| D3R | 3.21 |
| D3L | 2.06 |
| D3Y | 2.49 |
| D3V | 2.67 |
| D3M | 2.16 |
| D3G | 3.73 |
| D3K | 3.45 |
| D3A | 3.46 |
| Q1G | 3.31 |
| Q1S | 2.96 |
| Q1M | 2.79 |
| Q1F | 2.2 |
| Q1R | 3.39 |
| Q1C | 2.52 |
| Q1Y | 2.62 |
| Q1V | 2.7 |
| Q1W | 2.88 |
| Q1E | 2.9 |
| Q1T | 3.18 |
| Q1I | 3.23 |

| Variant | protein stability index |
| --- | --- |
| Q1L | 2.55 |
| Q1D | 4.18 |
| Q1N | 3.39 |
| Q1K | 3.2 |
| Q1A | 2.91 |
| Q1P | 3.53 |
| Q1H | 3.64 |
| K4P | 3 |
| K4Q | 3.03 |
| K4E | 3.62 |
| K4W | 3.04 |
| K4G | 3.5 |
| K4M | 2.85 |
| K4S | 3.52 |
| K4F | 2.93 |
| K4Y | 3.39 |
| K4C | 3 |
| K4I | 2.56 |
| K4H | 3.43 |
| K4N | 3.67 |
| K4V | 2.2 |
| K4R | 2.95 |
| K4L | 3.39 |

| Variant | protein stability index |
| --- | --- |
| K4D | 3.44 |
| K4T | 3.08 |
| K4A | 3.04 |
| S6I | 2.69 |
| S6M | 3.23 |
| S6A | 3.6 |
| S6T | 3.53 |
| S6E | 4.21 |
| S6Q | 3.14 |
| S6V | 3.47 |
| S6H | 3.35 |
| S6K | 3.23 |
| S6N | 3.29 |
| S6C | 2.77 |
| S6D | 4.67 |
| S6F | 2.63 |
| S6Y | 2.71 |
| S6G | 3.56 |
| S6R | 2.88 |
| S6P | 4 |
| S6L | 2.66 |
| S6W | 2.32 |
| E7G | 2.97 |

| Variant | protein stability index |
| --- | --- |
| E7H | 2.51 |
| E7Y | 2.26 |
| E7Q | 2.81 |
| E7C | 2.62 |
| E7D | 3.86 |
| E7W | 2.13 |
| E7M | 3.01 |
| E7V | 2.58 |
| E7F | 2.39 |
| E7R | 2.87 |
| E7P | 2.58 |
| E7I | 1.99 |
| E7K | 3.06 |
| E7N | 3.2 |
| E7S | 2.77 |
| E7T | 2.83 |
| E7L | 3.05 |
| E7A | 3.44 |
| V8F | 2.55 |
| V8E | 3.79 |
| V8D | 3.62 |
| V8C | 3.02 |
| V8A | 3.85 |
